The values below come from paper PMC8690919 (Theranostics, 2022).

In one assay the target is RBD-VLP (SARS-CoV-2, UniProt P0DTC2). In words: ELISA. As to conditions: both partners purified. (In general: An ELISA detects its analyte on a solid surface through an enzyme-linked reagent.)
The target in assay [1] is T1, SARS-CoV-2 spike protein (Wuhan strain), full length, expressed on MDCK cells (SARS-CoV-2, UniProt P0DTC2).
T1 construct: source: MDCK-SIAT1 cells stably transfected (lentiviral vector), on cells
Kind of assay: flow cytometry on cells. As to conditions: one partner purified.

B1: FD-5D human monoclonal antibody (IgG1) (antibody, V domains shown)
VH: EVQLVESGGGLVQPGGSLRLSCAASGFTFSSYSMNWVRQAPGKGLEWVSYISSSSSTIYYADSVKGRFTISRDNAKNSLYLQMNSLRAEDTAVYYCASPGGITAAGTSVLFGYYGMDVWGQGTTVTVSS
VL: not shown
notes: source: ExpiCHO cells, purified (MabSelect SuRe, desalted)
As to B1, in the assay with RBD-VLP, the binding result is “binds”.

B2: REGN10987 monoclonal antibody (antibody, V domains shown)
VH: QVQLVESGGGVVQPGRSLRLSCAASGFTFSNYAMYWVRQAPGKGLEWVAVISYDGSNKYYADSVKGRFTISRDNSKNTLYLQMNSLRTEDTAVYYCASGSDYGDYLLVYWGQGTLVTVSS
VL: QSALTQPASVSGSPGQSITISCTGTSSDVGGYNYVSWYQQHPGKAPKLMIYDVSKRPSGVSNRFSGSKSGNTASLTISGLQSEDEADYYCNSLTSISTWVFGGGTKLTVL
notes: also called REGN10977 (as printed once)
For the molecule B2, in the assay with RBD-VLP, the binding result is given as “binds”.

B3: FI-3A human monoclonal antibody (IgG1) (antibody, V domains shown)
VH: EVQLLESGGGLIQPGGSLRLSCAASGFTVSSNYMSWVRQAPGKGLEWVSVIYSGGSTYYADSVKGRFTISRDNSKNTLYLQMNSLRAEDTAVYYCARDHVRPGMNIWGQGTMVTVSS
VL: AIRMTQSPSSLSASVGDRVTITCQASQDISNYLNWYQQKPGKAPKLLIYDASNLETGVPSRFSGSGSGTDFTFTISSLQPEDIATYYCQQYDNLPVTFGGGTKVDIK
As for B3, the binding result (with RBD-VLP; in assay [1]) was “binds” in each case.

B4: REGN10933 monoclonal antibody (antibody, V domains shown)
VH: QVQLVESGGGLVKPGGSLRLSCAASGFTFSDYYMSWIRQAPGKGLEWVSYITYSGSTIYYADSVKGRFTISRDNAKSSLYLQMNSLRAEDTAVYYCARDRGTTMVPFDYWGQGTLVTVSS
VL: DIQMTQSPSSLSASVGDRVTITCQASQDITNYLNWYQQKPGKAPKLLIYAASNLETGVPSRFSGSGSGTDFTFTISGLQPEDIATYYCQQYDNLPLTFGGGTKVEIK
notes: as for B1
As to B4, in the assay with RBD-VLP, the binding result was “binds”.

B5: EY-6A human monoclonal antibody (IgG1) (antibody, V domains shown)
VH: EVQLVESGGGVVQPGRSLRLSCAASAFTFSSYDMHWVRQAPGKGLEWVAVISYDGSNKYYADSVKGRFTISRDNSKNTLYLQMNSLRAEDTAVYYCAKDGGKLWVYYFDYWGQGTLVTVSS
VL: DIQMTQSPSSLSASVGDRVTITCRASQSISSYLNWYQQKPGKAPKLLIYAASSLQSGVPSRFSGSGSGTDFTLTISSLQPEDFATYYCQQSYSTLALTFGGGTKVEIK
As for B5, the binding result (in the assay with RBD-VLP; in assay [1]) was “binds” each time.

B6: FD-11A human monoclonal antibody (IgG1) (antibody, V domains shown)
VH: EVQLVESGGGVVQPGRSLRLSCAASGFTFSSYGMHWVRQAPGKGLEWVAVIWYDGSNKYYADSVKGRFTISRDNSKNTLYLQMNSLRAEDTAVYYCAKGPDILTGYYNYYYYGMDVWGQGTMVTVSS
VL: QSVLTQPPSVSGAPGQRVTISCTGSSSNIGAGYDVHWYQQLPGTAPKLLIYGNSNRPSGVPDRFSGSKSGTSASLAITGLQAEDEADYYCQSYDSSLSGFYVVFGGGTKLTVL
For B6, the binding result (in the assay with RBD-VLP; in assay [1]) was “binds” each time.
